Experimental data taken from patent US20220339270A1 (published 2022).

Experiments:
[1] = target: T1, wild-type tau (441 amino acids; tau441; NP_005901.2) (human, UniProt P10636 1-758); experiment: wild-type tau ELISA, 293 cell supernatant
T1 construct: Unphosphorylated recombinant tau441 used in the wild-type tau ELISA; also called wt tau441; wtTau

[2] = target: T2, extracellular tau in the form of paired helical filaments (ePHF tau) (UniProt P10636-8 1-441, limits assumed); experiment: ePHF tau ELISA, ePHF coated; antibody at 0.7 ng/ml; anti-mouse-HRP
T2 construct: Aggregated, hyperphosphorylated tau preparation; not a single defined polypeptide

[3] = target: T2, extracellular tau in the form of paired …; experiment: ePHF tau ELISA, ePHF coated; antibody at 2.1 ng/ml; anti-mouse-HRP
[4] = target: T2, extracellular tau in the form of paired …; experiment: ePHF tau ELISA, ePHF coated; antibody at 6.2 ng/ml; anti-mouse-HRP
[5] = target: T2, extracellular tau in the form of paired …; experiment: ePHF tau ELISA, ePHF coated; antibody at 18.5 ng/ml; anti-mouse-HRP
[6] = target: T2, extracellular tau in the form of paired …; experiment: ePHF tau ELISA, ePHF coated; antibody at 55.6 ng/ml; anti-mouse-HRP
[7] = target: T2, extracellular tau in the form of paired …; experiment: ePHF tau ELISA, ePHF coated; antibody at 166.7 ng/ml; anti-mouse-HRP
[8] = target: T2, extracellular tau in the form of paired …; experiment: ePHF tau ELISA, ePHF coated; antibody at 500.0 ng/ml; anti-mouse-HRP
[9] = target: T2, extracellular tau in the form of paired …; experiment: ePHF tau ELISA, ePHF coated; antibody at 1000.0 ng/ml; anti-mouse-HRP

T2 sequence (P10636 other isoform, or with tags, fused parts or gaps limits assumed): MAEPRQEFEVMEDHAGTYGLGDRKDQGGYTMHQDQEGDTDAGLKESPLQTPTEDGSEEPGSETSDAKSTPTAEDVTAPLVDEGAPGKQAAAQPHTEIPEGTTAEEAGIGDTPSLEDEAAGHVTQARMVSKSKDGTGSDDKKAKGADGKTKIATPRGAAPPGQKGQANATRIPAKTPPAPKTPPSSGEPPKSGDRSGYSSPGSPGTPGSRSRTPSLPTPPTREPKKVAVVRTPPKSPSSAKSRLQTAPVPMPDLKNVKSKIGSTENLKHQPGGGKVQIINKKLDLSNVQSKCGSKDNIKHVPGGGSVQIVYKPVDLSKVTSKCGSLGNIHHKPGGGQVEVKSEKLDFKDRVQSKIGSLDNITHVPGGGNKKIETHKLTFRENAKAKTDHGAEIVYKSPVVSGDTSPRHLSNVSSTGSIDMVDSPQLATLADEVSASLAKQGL
T1 sequence (P10636 other isoform, or with tags, fused parts or gaps limits assumed): as above

B1: IPN002 scFv-HA expressed from TAU_ITR152 (CAG, LH, (G4S)3) (scFv)
scFv: DVLMTQTPLSLPVSLGDQASISCKSSQSIVHSNGNTYLEWYLQKPGQSPKLLVYKVSNRFSGVPDRFSGSGSGTDFTLKISRVEAEDLGTYYCFQGSLVPWAFGGGTKLEIKGGGGSGGGGSGGGGSEVHLVESGGALVKPGGSLKLSCAASGFSFSKYGMSWVRQTPDKRLEWVATISSSGSRTYYPDSVKGQFTISRDNAKNTLYLQMSSLKSEDTAMYYCSISWDGAMDYWGQGTSVTVSS
notes: also called CAG-IPN005-LH-G4S3; L(G4S)3H
[1]
  binding result: binds

B2: IPN002 scFv-HA expressed from TAU_ITR153 (CAG, LH, (G4S)4) (scFv)
scFv: DVLMTQTPLSLPVSLGDQASISCKSSQSIVHSNGNTYLEWYLQKPGQSPKLLVYKVSNRFSGVPDRFSGSGSGTDFTLKISRVEAEDLGTYYCFQGSLVPWAFGGGTKLEIKGGGGSGGGGSGGGGSGGGGSEVHLVESGGALVKPGGSLKLSCAASGFSFSKYGMSWVRQTPDKRLEWVATISSSGSRTYYPDSVKGQFTISRDNAKNTLYLQMSSLKSEDTAMYYCSISWDGAMDYWGQGTSVTVSS
notes: also called CAG-IPN006-LH-G4S4
[1]
  binding result: binds

B3: IPN002 scFv-HA expressed from TAU_ITR150 (CAG, LH, G4S) (scFv)
scFv: DVLMTQTPLSLPVSLGDQASISCKSSQSIVHSNGNTYLEWYLQKPGQSPKLLVYKVSNRFSGVPDRFSGSGSGTDFTLKISRVEAEDLGTYYCFQGSLVPWAFGGGTKLEIKGGGGSEVHLVESGGALVKPGGSLKLSCAASGFSFSKYGMSWVRQTPDKRLEWVATISSSGSRTYYPDSVKGQFTISRDNAKNTLYLQMSSLKSEDTAMYYCSISWDGAMDYWGQGTSVTVSS
notes: also called CAG-IPN004-LH-G4S; L(G4S)H
[1]
  binding result: binds

B4: anti-tau antibody MC1 expressed from viral genome construct MC1HIRESL (TAU_ITR75; SEQ ID NO: 2064) (antibody, mouse IgG1, kappa, V domains shown)
VH: QVQLQQSGAELMKPGASVKISCKATGYTFSNYWIEWVKQRPGHGLEWIGEILPGSDSIKYNENFKGKATFTADTSSNTAYMQLSSLTSEDSAVYYCARRGNYPDYWGQGTTLTVSS
VL: DVVMTQTPLSLPVSLGDQASISCRSSQSLVHSNGNTYLHWYLQKPGQSPKLLIYKVSNRFSGVPDRFSGSGSGTDFTLKISRVEAEDLGVYFCSQSTHVPLTFGAGTKLELKR
[2]
  OD450: 0.1 OD450
[3]
  OD450: 0.1 OD450
[4]
  OD450: 0.1 OD450
[5]
  OD450: 0.1 OD450
[6]
  OD450: 0.2 OD450
[7]
  OD450: 0.3 OD450
[8]
  OD450: 0.7 OD450
[9]
  OD450: 1 OD450

B5: anti-tau antibody MC1 expressed from viral genome construct MC1LIRESH (TAU_ITR80; SEQ ID NO: 2069) (antibody, mouse IgG1, kappa, V domains shown)
VH: QVQLQQSGAELMKPGASVKISCKATGYTFSNYWIEWVKQRPGHGLEWIGEILPGSDSIKYNENFKGKATFTADTSSNTAYMQLSSLTSEDSAVYYCARRGNYPDYWGQGTTLTVSS
VL: DVVMTQTPLSLPVSLGDQASISCRSSQSLVHSNGNTYLHWYLQKPGQSPKLLIYKVSNRFSGVPDRFSGSGSGTDFTLKISRVEAEDLGVYFCSQSTHVPLTFGAGTKLELKR
[2]
  OD450: 0.1 OD450
[3]
  OD450: 0.1 OD450
[4]
  OD450: 0.1 OD450
[5]
  OD450: 0.2 OD450
[6]
  OD450: 0.3 OD450
[7]
  OD450: 0.6 OD450
[8]
  OD450: 0.9 OD450
[9]
  OD450: 1 OD450

B6: anti-tau antibody MC1 expressed from viral genome construct MC1LF2AH (TAU_ITR79; SEQ ID NO: 2068) (antibody, V domains shown)
VH: QVQLQQSGAELMKPGASVKISCKATGYTFSNYWIEWVKQRPGHGLEWIGEILPGSDSIKYNENFKGKATFTADTSSNTAYMQLSSLTSEDSAVYYCARRGNYPDYWGQGTTLTVSS
VL: DVVMTQTPLSLPVSLGDQASISCRSSQSLVHSNGNTYLHWYLQKPGQSPKLLIYKVSNRFSGVPDRFSGSGSGTDFTLKISRVEAEDLGVYFCSQSTHVPLTFGAGTKLELKR
[2]
  OD450: 0.1 OD450
[3]
  OD450: 0.1 OD450
[4]
  OD450: 0.1 OD450
[5]
  OD450: 0.2 OD450
[6]
  OD450: 0.4 OD450
[7]
  OD450: 0.7 OD450
[8]
  OD450: 1 OD450
[9]
  OD450: 1.1 OD450

B7: IPN002 F(ab')2_hIgG3_3hinge expressed from TAU_ITR122 (CBA, hGbin, HF.T2AL) (F(ab')2)
VH: EVHLVESGGALVKPGGSLKLSCAASGFSFSKYGMSWVRQTPDKRLEWVATISSSGSRTYYPDSVKGQFTISRDNAKNTLYLQMSSLKSEDTAMYYCSISWDGAMDYWGQGTSVTVSS
VL: DVLMTQTPLSLPVSLGDQASISCKSSQSIVHSNGNTYLEWYLQKPGQSPKLLVYKVSNRFSGVPDRFSGSGSGTDFTLKISRVEAEDLGTYYCFQGSLVPWAFGGGTKLEIK
[1]
  binding result: binds

B8: IPN002 scFv-HA expressed from TAU_ITR143 (CAG, HL, (G4S)8) (scFv)
scFv: EVHLVESGGALVKPGGSLKLSCAASGFSFSKYGMSWVRQTPDKRLEWVATISSSGSRTYYPDSVKGQFTISRDNAKNTLYLQMSSLKSEDTAMYYCSISWDGAMDYWGQGTSVTVSSGGGGSGGGGSGGGGSGGGGSGGGGSGGGGSGGGGSGGGGSDVLMTQTPLSLPVSLGDQASISCKSSQSIVHSNGNTYLEWYLQKPGQSPKLLVYKVSNRFSGVPDRFSGSGSGTDFTLKISRVEAEDLGTYYCFQGSLVPWAFGGGTKLEIK
notes: also called CAG-IPN0012-HL-G4S8
[1]
  binding result: binds

B9: IPN002 scFv-HA expressed from TAU_ITR137 (CAG, HL, G4S) (scFv)
scFv: EVHLVESGGALVKPGGSLKLSCAASGFSFSKYGMSWVRQTPDKRLEWVATISSSGSRTYYPDSVKGQFTISRDNAKNTLYLQMSSLKSEDTAMYYCSISWDGAMDYWGQGTSVTVSSGGGGSDVLMTQTPLSLPVSLGDQASISCKSSQSIVHSNGNTYLEWYLQKPGQSPKLLVYKVSNRFSGVPDRFSGSGSGTDFTLKISRVEAEDLGTYYCFQGSLVPWAFGGGTKLEIK
notes: also called CAG-IPN002-HL-G4S; H(G4S)L
[1]
  binding result: binds

B10: IPN002 scFv-HA expressed from TAU_ITR140 (CAG, HL, (G4S)4) (scFv)
scFv: EVHLVESGGALVKPGGSLKLSCAASGFSFSKYGMSWVRQTPDKRLEWVATISSSGSRTYYPDSVKGQFTISRDNAKNTLYLQMSSLKSEDTAMYYCSISWDGAMDYWGQGTSVTVSSGGGGSGGGGSGGGGSGGGGSDVLMTQTPLSLPVSLGDQASISCKSSQSIVHSNGNTYLEWYLQKPGQSPKLLVYKVSNRFSGVPDRFSGSGSGTDFTLKISRVEAEDLGTYYCFQGSLVPWAFGGGTKLEIK
notes: also called CAG-IPN008-HL-G4S4
[1]
  binding result: binds

B11: IPN002 scFv-HA expressed from TAU_ITR142 (CAG, HL, (G4S)6) (scFv)
scFv: EVHLVESGGALVKPGGSLKLSCAASGFSFSKYGMSWVRQTPDKRLEWVATISSSGSRTYYPDSVKGQFTISRDNAKNTLYLQMSSLKSEDTAMYYCSISWDGAMDYWGQGTSVTVSSGGGGSGGGGSGGGGSGGGGSGGGGSGGGGSDVLMTQTPLSLPVSLGDQASISCKSSQSIVHSNGNTYLEWYLQKPGQSPKLLVYKVSNRFSGVPDRFSGSGSGTDFTLKISRVEAEDLGTYYCFQGSLVPWAFGGGTKLEIK
notes: also called CAG-IPN0011-HL-G4S6
[1]
  binding result: binds

B12: IPN002 scFv-HA expressed from TAU_ITR155 (CAG, LH, (G4S)6) (scFv)
scFv: DVLMTQTPLSLPVSLGDQASISCKSSQSIVHSNGNTYLEWYLQKPGQSPKLLVYKVSNRFSGVPDRFSGSGSGTDFTLKISRVEAEDLGTYYCFQGSLVPWAFGGGTKLEIKGGGGSGGGGSGGGGSGGGGSGGGGSGGGGSEVHLVESGGALVKPGGSLKLSCAASGFSFSKYGMSWVRQTPDKRLEWVATISSSGSRTYYPDSVKGQFTISRDNAKNTLYLQMSSLKSEDTAMYYCSISWDGAMDYWGQGTSVTVSS
notes: also called CAG-IPN0014-LH-G4S6
[1]
  binding result: binds

B13: IPN002 scFv-HA expressed from TAU_ITR139 (CAG, HL, (G4S)3) (scFv)
scFv: EVHLVESGGALVKPGGSLKLSCAASGFSFSKYGMSWVRQTPDKRLEWVATISSSGSRTYYPDSVKGQFTISRDNAKNTLYLQMSSLKSEDTAMYYCSISWDGAMDYWGQGTSVTVSSGGGGSGGGGSGGGGSDVLMTQTPLSLPVSLGDQASISCKSSQSIVHSNGNTYLEWYLQKPGQSPKLLVYKVSNRFSGVPDRFSGSGSGTDFTLKISRVEAEDLGTYYCFQGSLVPWAFGGGTKLEIK
notes: also called CAG-IPN003-HL-G4S3; H(G4S)3L
[1]
  binding result: binds

B14: IPN002 scFv-HA expressed from TAU_ITR151 (CAG, LH, (G4S)2) (scFv)
scFv: DVLMTQTPLSLPVSLGDQASISCKSSQSIVHSNGNTYLEWYLQKPGQSPKLLVYKVSNRFSGVPDRFSGSGSGTDFTLKISRVEAEDLGTYYCFQGSLVPWAFGGGTKLEIKGGGGSGGGGSEVHLVESGGALVKPGGSLKLSCAASGFSFSKYGMSWVRQTPDKRLEWVATISSSGSRTYYPDSVKGQFTISRDNAKNTLYLQMSSLKSEDTAMYYCSISWDGAMDYWGQGTSVTVSS
notes: also called CAG-IPN004-LH-G4S2
[1]
  binding result: binds

B15: IPN002 scFv-HA expressed from TAU_ITR141 (CAG, HL, (G4S)5) (scFv)
scFv: EVHLVESGGALVKPGGSLKLSCAASGFSFSKYGMSWVRQTPDKRLEWVATISSSGSRTYYPDSVKGQFTISRDNAKNTLYLQMSSLKSEDTAMYYCSISWDGAMDYWGQGTSVTVSSGGGGSGGGGSGGGGSGGGGSGGGGSDVLMTQTPLSLPVSLGDQASISCKSSQSIVHSNGNTYLEWYLQKPGQSPKLLVYKVSNRFSGVPDRFSGSGSGTDFTLKISRVEAEDLGTYYCFQGSLVPWAFGGGTKLEIK
notes: also called CAG-IPN0010-HL-G4S5
[1]
  binding result: binds

B16: IPN002 scFv-HA expressed from TAU_ITR154 (CAG, LH, (G4S)5) (scFv)
scFv: DVLMTQTPLSLPVSLGDQASISCKSSQSIVHSNGNTYLEWYLQKPGQSPKLLVYKVSNRFSGVPDRFSGSGSGTDFTLKISRVEAEDLGTYYCFQGSLVPWAFGGGTKLEIKGGGGSGGGGSGGGGSGGGGSGGGGSEVHLVESGGALVKPGGSLKLSCAASGFSFSKYGMSWVRQTPDKRLEWVATISSSGSRTYYPDSVKGQFTISRDNAKNTLYLQMSSLKSEDTAMYYCSISWDGAMDYWGQGTSVTVSS
notes: also called CAG-IPN007-LH-G4S5
[1]
  binding result: binds
